Assay results reported in patent US20250121104A1 (FUSION PHARMACEUTICALS, published 2025).

Assays:
[1] = molecular target: T1, EGFR and cMET co-expressed on the surface of tumour cell lines (HCC827, HT29, H441, H1975) (UniProt P00533 25-1210; P08581 25-1390); assay: confocal fluorescence microscopy, AlexaFluor647-labelled antibody pre-bound to cells, T=0
T1 construct: whole, on cells; Target of the bispecific molecules on cells that carry both receptors; the cell line of each value stands under assay; also called EGFR and c-MET expressing cell line; EGFR and/or cMET expressing cell lines

mouse EGFR (recombinant) = molecular target: T2, mouse EGFR (recombinant) (mouse, UniProt Q01279 25-647); assay: SPR (BIAcore T200), antibody captured on anti-human IgG, soluble monomeric antigen as analyte, 25 C, 1:1 fit
T2 construct: also called murine EGFR
Method: (§1) Mouse anti-human IgG was immobilized on a CM4 sensor chip with a final surface density of ˜2000 resonance units (RUs). A reference flow cell surface was also prepared on this sensor chip using identical immobilization protocol. Test and control article antibodies were prepared at 5-20 nM in instrument buffer (HBS-EP buffer; 0.01M HEPES, pH 7.4, 0.15M NaCl, 3 mM EDTA, and 0.005% P-20), along with 3-fold serial dilutions of purified EGFR (0.27-200 nM human, 0.4-900 nM cyno, and 4-1000 nM murine) or cMET proteins (0.27-66 nM human and 0.27-22 nM cyno) in instrument buffer. A sequential approach was utilized for kinetic measurements. Antibodies were first injected over the capture surface, at a flow rate of 10 μL/minute. Once the binding of the captured antibody stabilized, a single concentration of the analyte was injected over both capture and reference surfaces, at a flow rate of 75 μL/minute. The resulting binding response curves yielded the association phase data. Following the injection of analyte, the flow was then switched back to instrument buffer for 15 minutes to permit the collection of dissociation phase data, followed by a 1-minute pulse of 10 mM glycine, pH 1.5, to regenerate the antibody-captured surface on the chip. Binding responses against test and control article antibodies were recorded from duplicate injections of each concentration of analyte. In addition, several buffer injections were interspersed throughout the injection series. Select buffer injections were used along with the reference cell responses to correct the raw data sets for injection artifacts and/or nonspecific binding interactions, commonly referred to as “double referencing”. Corrected binding data were globally fit to a 1:1 binding model (Biacore T200 Evaluation software 2.0, GE Healthcare, Pittsburgh, PA).
(§2) Kinetic measurements to soluble monomeric forms of EGFR and cMET were performed using a BIACore instrument.

[2] = molecular target: T3, cynomolgus monkey cMET (recombinant, soluble monomeric) (cynomolgus monkey, UniProt A0M8R7 25-932 (Papio anubis entry)); assay: as above
T3 construct: also called cyno cMET
Method: as §1, §2

[3] = molecular target: T4, cynomolgus monkey EGFR (recombinant, soluble monomeric) (cynomolgus monkey, UniProt P55245 25-645 (rhesus entry)); assay: as above
T4 construct: also called cyno EGFR
Method: as §1, §2

[4] = molecular target: T5, human cMET (recombinant, soluble monomeric) (human, UniProt P08581 25-932); assay: as above
T5 construct: also called cMET antigen; His-tagged cMET antigen
Method: as §1, §2

[5] = molecular target: T6, human EGFR (recombinant, soluble monomeric) (human, UniProt P00533 25-645); assay: as above
T6 construct: also called EGFR antigen
Method: as §1, §2

T5 sequence (P08581 25-932): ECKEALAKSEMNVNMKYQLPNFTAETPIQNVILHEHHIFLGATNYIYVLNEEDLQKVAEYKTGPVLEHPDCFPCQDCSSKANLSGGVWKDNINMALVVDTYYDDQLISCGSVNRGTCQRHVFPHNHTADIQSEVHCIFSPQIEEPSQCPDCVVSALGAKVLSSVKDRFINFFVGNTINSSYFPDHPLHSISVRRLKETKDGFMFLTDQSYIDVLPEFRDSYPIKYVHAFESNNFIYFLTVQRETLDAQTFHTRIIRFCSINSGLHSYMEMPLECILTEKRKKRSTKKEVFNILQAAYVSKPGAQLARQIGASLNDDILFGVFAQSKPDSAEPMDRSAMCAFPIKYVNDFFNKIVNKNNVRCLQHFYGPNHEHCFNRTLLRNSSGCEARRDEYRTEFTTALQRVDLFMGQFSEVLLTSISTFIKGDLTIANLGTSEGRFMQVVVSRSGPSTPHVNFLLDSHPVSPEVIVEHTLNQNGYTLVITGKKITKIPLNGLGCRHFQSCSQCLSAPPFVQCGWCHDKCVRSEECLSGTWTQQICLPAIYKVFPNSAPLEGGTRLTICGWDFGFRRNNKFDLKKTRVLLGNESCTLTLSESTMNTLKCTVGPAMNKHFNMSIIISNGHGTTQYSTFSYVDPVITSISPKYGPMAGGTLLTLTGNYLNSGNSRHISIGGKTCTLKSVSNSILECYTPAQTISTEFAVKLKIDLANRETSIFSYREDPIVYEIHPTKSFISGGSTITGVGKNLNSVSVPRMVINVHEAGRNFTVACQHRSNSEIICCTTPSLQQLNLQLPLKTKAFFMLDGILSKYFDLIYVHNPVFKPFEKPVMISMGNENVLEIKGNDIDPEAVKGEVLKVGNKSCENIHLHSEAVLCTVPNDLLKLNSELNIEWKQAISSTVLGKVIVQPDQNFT
T3 sequence (A0M8R7 25-932 S170N/I621T): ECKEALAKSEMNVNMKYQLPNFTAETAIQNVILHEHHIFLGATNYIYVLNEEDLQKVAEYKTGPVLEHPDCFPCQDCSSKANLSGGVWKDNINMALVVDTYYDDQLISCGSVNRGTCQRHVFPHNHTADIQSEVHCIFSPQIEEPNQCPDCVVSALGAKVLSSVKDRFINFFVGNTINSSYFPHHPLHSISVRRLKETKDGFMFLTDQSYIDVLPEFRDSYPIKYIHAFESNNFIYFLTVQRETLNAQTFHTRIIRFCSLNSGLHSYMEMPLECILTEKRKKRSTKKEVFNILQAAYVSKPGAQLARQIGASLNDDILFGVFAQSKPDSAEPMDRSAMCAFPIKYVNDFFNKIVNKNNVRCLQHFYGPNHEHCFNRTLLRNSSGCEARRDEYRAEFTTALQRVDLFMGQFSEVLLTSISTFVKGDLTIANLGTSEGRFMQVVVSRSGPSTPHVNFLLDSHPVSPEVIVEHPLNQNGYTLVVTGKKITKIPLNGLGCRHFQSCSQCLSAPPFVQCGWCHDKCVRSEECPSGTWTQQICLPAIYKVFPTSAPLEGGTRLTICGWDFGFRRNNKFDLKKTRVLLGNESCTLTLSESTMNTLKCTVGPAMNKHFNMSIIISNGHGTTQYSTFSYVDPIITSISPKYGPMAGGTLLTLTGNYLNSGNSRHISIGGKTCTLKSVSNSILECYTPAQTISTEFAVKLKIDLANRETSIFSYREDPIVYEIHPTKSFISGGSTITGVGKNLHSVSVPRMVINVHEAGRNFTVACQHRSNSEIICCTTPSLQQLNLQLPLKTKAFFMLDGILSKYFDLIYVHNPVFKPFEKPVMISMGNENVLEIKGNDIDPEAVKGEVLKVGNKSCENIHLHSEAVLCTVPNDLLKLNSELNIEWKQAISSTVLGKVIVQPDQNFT

B1: RAA22/B09-57 DuetMab (bispecific antibody, V domains shown)
VH 1: QVQLVQSGAEVKKPGSSVKVSCKASGGTFSDNDFSWVRQAPGQGLEWMGAIVAVFRTETYAQKFQDRVKITADISTRTTYMELSSLRSEDTAVYYCARRLMSAISGPGAPLLMWGQGTLVTVSS
VL 1: QSALTQPRSVSGSPGQSVTISCTGTSSDVGGYNYVSWYQQHPGKAPKLMIYDVSKRPSGVPDRFSGSKSGNTASLTISGLQAEDEADYYCSSYTSSDTLEIFGGGTKLTVL
VH 2: QVQLVQSGAEVKKPGASVKVSCKASGYTFTDYYIHWVRQATGQGLEWMGWMNPNSGNTGYAQKFQGRVTMTRDTSISTAYMELSSLRSEDTAVYYCARGQGYTHSWGQGTMVTVSS
VL 2: DIQMTQSPSTLSASVGDRVTITCRASEGIYHWLAWYQQKPGKAPKLLIYKASSLASGVPSRFSGSGSGTEFTLTISSLQPDDFATYYCQQYSNYPPTFGGGTKLEIK
notes: RAA22 VH on Hole heavy chain (T366S, L368A, Y407V, Y349C) with lambda CL; cysteine insertion after S239; also called RAA22/B09 DuetMab; RAA22/B09 bispecific mAb
- fold binding on HCC827 cells over H1975 cells [1]: 8.9 fold
- Kd (mouse EGFR (recombinant)): 575 nM
- koff (mouse EGFR (recombinant)): 0.0206 s⁻¹
- kon (mouse EGFR (recombinant)): 35400 M⁻¹ s⁻¹
- Kd [2]: 2.2 nM
- koff [2]: 0.00212 s⁻¹
- kon [2]: 974000 M⁻¹ s⁻¹
- Kd [3]: 197 nM
- koff [3]: 0.00548 s⁻¹
- kon [3]: 27800 M⁻¹ s⁻¹
- Kd [4]: 2.2 nM
- koff [4]: 0.000986 s⁻¹
- kon [4]: 443000 M⁻¹ s⁻¹
- Kd [5]: 45 nM
- koff [5]: 0.00201 s⁻¹
- kon [5]: 44700 M⁻¹ s⁻¹
